Experimental data taken from the Immune Epitope Database (IEDB).

Tests used:
HLA-A*68:02 [1] = test: IEDB peptide-MHC binding, cellular MHC/competitive/fluorescence; ≥ and ≤ were set here for values at or beyond the usual limits of such assays
HLA-A*68:01 = test: as above; conditions: source organism: Hepatitis B virus
HLA-A*11:01 = test: as above; conditions: source organism: Hepatitis B virus
HLA-A*31:01 [2] = test: as above; conditions: source organism: Hepatitis B virus
HLA-A*03:01 [3] = test: IEDB peptide-MHC binding, purified MHC/competitive/radioactivity; ≥ and ≤ were set here for values at or beyond the usual limits of such assays; conditions: source organism: Hepatitis B virus
HLA-A*02:06 [4] = test: as above
HLA-A*02:02 [5] = test: as above
HLA-A*02:03 [6] = test: as above
HLA-A*03:01 [7] = test: IEDB peptide-MHC binding, cellular MHC/competitive/fluorescence; ≥ and ≤ were set here for values at or beyond the usual limits of such assays; conditions: source organism: Hepatitis B virus
HLA-A*31:01 [8] = test: IEDB peptide-MHC binding, purified MHC/competitive/radioactivity; ≥ and ≤ were set here for values at or beyond the usual limits of such assays
HLA-A*02:01 [9] = test: as above
HLA-A*02:02 [10] = test: IEDB peptide-MHC binding, cellular MHC/competitive/fluorescence; ≥ and ≤ were set here for values at or beyond the usual limits of such assays; conditions: source organism: Hepatitis B virus
HLA-A*68:02 [11] = test: IEDB peptide-MHC binding, purified MHC/competitive/radioactivity; ≥ and ≤ were set here for values at or beyond the usual limits of such assays; conditions: source organism: Hepatitis B virus
HLA-A*02:03 [12] = test: IEDB peptide-MHC binding, cellular MHC/competitive/fluorescence; ≥ and ≤ were set here for values at or beyond the usual limits of such assays; conditions: source organism: Hepatitis B virus
HLA-A*02:06 [13] = test: as above; conditions: source organism: Hepatitis B virus
HLA-A*02:01 [14] = test: as above; conditions: source organism: Hepatitis B virus
[15] = source organism: Hepatitis B virus
[16] = source organism: Vaccinia virus WR

| Sequence | IC50 (HLA-A*68:02 [1]; [15]) [µM] | IC50 (HLA-A*68:01) [µM] | IC50 (HLA-A*11:01) [µM] | IC50 (HLA-A*31:01 [2]) [µM] | IC50 (HLA-A*03:01 [3]) [µM] | IC50 (HLA-A*02:06 [4]; [15]) [µM] | IC50 (HLA-A*02:02 [5]; [15]) [nM] | IC50 (HLA-A*02:03 [6]; [15]) [µM] | IC50 (HLA-A*03:01 [7]) [µM] | IC50 (HLA-A*31:01 [8]; [15]) [µM] | IC50 (HLA-A*02:01 [9]; [15]) [µM] | other results |
| --- | --- | --- | --- | --- | --- | --- | --- | --- | --- | --- | --- | --- |
| LLWFHISCL | ≥ 70 | ≥ 70 | 32.5 | 8.85 | 3.26 | 0.382 | 307 |  |  |  |  |  |
| SLYADSPSV | 13.7 | ≥ 70 | ≥ 70 | 14.6 | 2.02 | 0.883 | 12 | 0.0034 |  |  |  |  |
| NLSWLSLDV | 28.4 | ≥ 70 | ≥ 70 | 15.4 |  | 2.74 | 69 | 0.05 | 9.22 |  |  |  |
| KLYIALCKV |  |  |  |  |  |  |  |  |  |  |  | IC50 (HLA-A*68:02 [1]; [16]): 16.6 µM; IC50 (HLA-A*02:03 [6]; [16]): 0.0014 µM; IC50 (HLA-A*02:06 [4]; [16]): 0.097 µM; IC50 (HLA-A*31:01 [8]; [16]): 0.739 µM; IC50 (HLA-A*02:01 [9]; [16]): 0.0067 µM; IC50 (HLA-A*02:02 [5]; [16]): 16 nM |
| FLFILLLCL |  | 26.9 | 19 |  | 0.664 | 1.78 |  | 1.57 |  | 1.47 | 0.213 | IC50 (HLA-A*02:02 [10]): 7.02 µM; IC50 (HLA-A*68:02 [11]): 1.2 µM |
| SMYPSCCCT | ≥ 70 | ≥ 70 | ≥ 70 | 68.4 |  |  |  |  | ≥ 70 |  |  | IC50 (HLA-A*02:03 [12]): 5.52 µM; IC50 (HLA-A*02:06 [13]): 9.31 µM; IC50 (HLA-A*02:01 [14]): 6.43 µM; IC50 (HLA-A*02:02 [10]): 10.3 µM |
| ILCWGELMTL | 7.82 | 43.9 | ≥ 70 |  |  | 0.007 | 6.7 | 0.0053 | 9.08 | 1.86 |  |  |
| KQYLNLYPV | 36.8 | ≥ 70 | 30.4 |  |  | 0.011 | 224 | 0.0045 | ≥ 70 | 0.189 | 0.138 |  |
| LLVPFVQWFV |  | 45.2 | 8.09 |  | 0.476 |  | 0.17 |  |  | 0.161 |  | IC50 (HLA-A*02:03 [12]): 10.5 µM; IC50 (HLA-A*68:02 [11]): 0.068 µM |
| FLCKQYLNL | ≥ 70 | ≥ 70 | ≥ 70 | 26.3 |  | 1.11 | 175 | 0.011 | ≥ 70 |  |  |  |
| WMMWYWGPSL |  | ≥ 70 | ≥ 70 |  |  | 0.305 | 354 | 0.068 | 15.4 | 0.784 |  | IC50 (HLA-A*68:02 [11]): 3.59 µM |
| ILLLCLIFL | 12.1 | 30.3 | 13.8 |  | 0.624 | 0.145 | 1120 | 1.53 |  | 1.48 |  |  |
| ILRGTSFVYV | 37.2 | ≥ 70 | ≥ 70 |  | 4.77 | 0.083 | 3.9 | 0.0022 |  | 1.36 |  |  |
| CLRRFIIFL | 48.8 | ≥ 70 | ≥ 70 | 6.65 | 2.63 |  |  |  |  |  | 1.39 | IC50 (HLA-A*02:03 [12]): 14.6 µM; IC50 (HLA-A*02:06 [13]): 10.1 µM; IC50 (HLA-A*02:02 [10]): 7.11 µM |
| LLDYQGMLPV |  | ≥ 70 | 28.5 |  | 0.063 | 0.0026 |  |  |  | 4.01 |  | IC50 (HLA-A*68:02 [11]): 0.626 µM |
| GLSRYVARV | 8.86 | ≥ 70 | ≥ 70 | 24.7 |  | 1.17 | 11 | 0.0015 | 7.23 |  | 0.154 |  |
| MMWYWGPSL |  | ≥ 70 |  |  |  |  | 137 | 0.054 |  | 0.131 |  |  |

| Sequence | IC50 (HLA-A*68:02 [1]; [15]) [µM] | IC50 (HLA-A*68:01) [µM] | IC50 (HLA-A*11:01) [µM] | IC50 (HLA-A*31:01 [2]) [µM] | IC50 (HLA-A*03:01 [3]) [µM] | IC50 (HLA-A*02:06 [4]; [15]) [µM] | IC50 (HLA-A*02:02 [5]; [15]) [nM] | IC50 (HLA-A*02:03 [6]; [15]) [µM] | IC50 (HLA-A*03:01 [7]) [µM] | IC50 (HLA-A*31:01 [8]; [15]) [µM] | IC50 (HLA-A*02:01 [9]; [15]) [µM] | other results |
| --- | --- | --- | --- | --- | --- | --- | --- | --- | --- | --- | --- | --- |
| KVGAGAFGL | ≥ 70 | ≥ 70 | ≥ 70 | 12.6 |  | 1.14 |  |  | 25 |  |  | IC50 (HLA-A*02:03 [12]): 34.7 µM; IC50 (HLA-A*02:01 [14]): 11 µM; IC50 (HLA-A*02:02 [10]): 9.12 µM |
| FLLSLGIHL | 10.5 | 15.7 |  | 6.79 | 2.53 |  |  |  |  |  |  |  |
| CLIFLLVLL | 7.11 | 34.9 | 35.7 |  | 0.682 | 1.04 | 1520 | 0.659 |  | 0.998 | 0.101 |  |
| HLYSHPIIL | 22.7 | ≥ 70 | ≥ 70 | 46 | 0.171 |  | 81 | 0.018 |  |  |  | IC50 (HLA-A*02:06 [13]): 9.45 µM |
| YLVSFGVWI | 38.2 | ≥ 70 | ≥ 70 | ≥ 70 |  | 1.84 | 140 | 0.311 | 15.2 |  | 0.173 |  |
| VLLDYQGML | ≥ 70 | ≥ 70 | 35.2 | 12.8 |  | 0.679 | 53 |  | ≥ 70 |  | 0.081 | IC50 (HLA-A*02:03 [12]): 22.6 µM |
| LLVLLDYQGM | 61.1 | ≥ 70 | ≥ 70 | 7.26 |  | 1.81 | 799 |  | 19.5 |  |  | IC50 (HLA-A*02:03 [12]): 5.58 µM |
| RVRGLYFPA | 17.2 | ≥ 70 | ≥ 70 |  |  |  | 3120 | 3.96 | ≥ 70 | 0.024 |  | IC50 (HLA-A*02:06 [13]): 8.24 µM; IC50 (HLA-A*02:01 [14]): 18 µM |
| RILTIPQSL | ≥ 70 | ≥ 70 | ≥ 70 | 36.9 |  |  |  |  | ≥ 70 |  |  | IC50 (HLA-A*02:03 [12]): 9.77 µM; IC50 (HLA-A*02:06 [13]): 5.95 µM; IC50 (HLA-A*02:01 [14]): 39.1 µM; IC50 (HLA-A*02:02 [10]): 6.45 µM |
| LLPIFFCLWV | ≥ 70 | 51 | ≥ 70 | 6.23 | 1.33 | 0.0023 |  | 0.015 |  |  |  |  |
| PLLPIFFCL | 33.1 | 44.2 | ≥ 70 | 9.87 |  | 0.087 | 63 | 0.637 | ≥ 70 |  | 0.111 |  |
| YQGMLPVCPL | 5.34 | ≥ 70 | ≥ 70 | 11.4 |  | 0.165 | 35 | 0.02 | 24 |  | 0.543 |  |
| FLGPLLVLQA | 30.3 | ≥ 70 | 61.2 | 14.7 |  | 1.37 | 3690 | 0.16 | 33.1 |  |  |  |
| SLYSILSPFL | 6.67 | 64 | ≥ 70 | 5.67 |  | 0.076 | 1 | 0.013 | 14.3 |  | 0.0082 |  |
| HQLDPAFRA | ≥ 70 | ≥ 70 | 14.7 | 40.6 |  | 0.118 |  |  | ≥ 70 |  |  | IC50 (HLA-A*02:03 [12]): 55.9 µM; IC50 (HLA-A*02:01 [14]): 6.45 µM; IC50 (HLA-A*02:02 [10]): 16 µM |
| FLAPLPIHTA |  | 35.5 | 43.2 | ≥ 70 | 4.09 | 0.013 | 0.049 | 0.00028 |  |  | 0.0013 | IC50 (HLA-A*68:02 [11]): 0.971 µM |
| LVPFVQWFV |  | ≥ 70 | 69.8 |  |  | 0.055 |  | 0.071 | ≥ 70 | 1.82 | 0.168 | IC50 (HLA-A*68:02 [11]): 0.019 µM |
